Data on two molecules can be found in paper PMC4403255 (Genes & Development, 2015).

Assay [1] has as its target Full extracellular domain of mouse amyloid precursor protein (mouse) (UniProt P12023). The experiment in a line: SEC.
The target of the next assay is T1, DR6-Fc fusion (UniProt Q9EPU5 42-349).
T1 sequence (looked up): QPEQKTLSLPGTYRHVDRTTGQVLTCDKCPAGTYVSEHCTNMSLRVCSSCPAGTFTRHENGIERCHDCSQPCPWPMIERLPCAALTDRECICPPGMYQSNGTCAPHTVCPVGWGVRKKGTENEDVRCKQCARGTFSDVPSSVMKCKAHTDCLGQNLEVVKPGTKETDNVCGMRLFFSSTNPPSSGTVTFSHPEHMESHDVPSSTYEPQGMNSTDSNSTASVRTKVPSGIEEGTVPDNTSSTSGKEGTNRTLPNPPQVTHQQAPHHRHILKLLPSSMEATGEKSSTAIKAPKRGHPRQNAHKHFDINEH
Description: BLI.

With “Full extracellular domain of mouse amyloid precursor protein (from UniProt P12023-2 18-596) (domain or fragment)”, the stoichiometry N in assay [1] was 2.

B1: AP-APP-E2 (amino acids 287-506), wild type (domain or fragment, UniProt P12023-2 287-506, looked up)
chain: VRVPTTAASTPDAVDKYLETPGDENEHAHFQKAKERLEAKHRERMSQVMREWEEAERQAKNLPKADKKAVIQHFQEKVESLEQEAANERQQLVETHMARVEAMLNDRRRLALENYITALQAVPPRPHHVFNMLKKYVRAEQKDRQHTLKHFEHVRMVDPKKAAQIRSQVMTHLRVIYERMNQSLSLLYNVPAVAEEIQDEVDELLQKEQNYSDDVLANMI
As for B1, the Kd in the assay with DR6-Fc fusion is 85 nM.

One may read the stoichiometry N as a count of units in the complex or per binding partner. By Kd is commonly meant a measure of binding affinity in units of concentration. High values mean lower affinity, low ones higher affinity.
